Residue numbers refer to the chain shown, from its start. No end group written: not given here.
T1: human CRH receptor type 2 (human, UniProt Q13324 1-411)
T1 sequence (looked up): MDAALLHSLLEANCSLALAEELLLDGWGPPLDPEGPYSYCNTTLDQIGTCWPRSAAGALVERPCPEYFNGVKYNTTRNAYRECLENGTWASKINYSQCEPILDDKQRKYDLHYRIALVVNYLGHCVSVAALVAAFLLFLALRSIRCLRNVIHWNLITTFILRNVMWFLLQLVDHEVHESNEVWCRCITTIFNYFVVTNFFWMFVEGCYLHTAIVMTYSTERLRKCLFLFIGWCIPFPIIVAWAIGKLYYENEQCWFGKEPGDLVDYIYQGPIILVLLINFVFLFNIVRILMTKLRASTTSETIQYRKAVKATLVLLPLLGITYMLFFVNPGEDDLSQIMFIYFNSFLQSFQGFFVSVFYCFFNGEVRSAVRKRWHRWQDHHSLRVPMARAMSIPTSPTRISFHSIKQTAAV

B1: Cys-variant CRHR2 peptide agonist, SEQ ID NO: 36 (peptide)
peptide: TKFTLSLDVPTNIMNLLFNIAKAKNLRAQAAANACLMAQI-NH2
B2: Cys-variant CRHR2 peptide agonist, SEQ ID NO: 35 (peptide)
peptide: TKFTLSLDVPTNIMNLLFNIAKAKNLRAQAAANCHLMAQI-NH2
B3: Cys-variant CRHR2 peptide agonist, SEQ ID NO: 25 (peptide)
peptide: TKFTLSLDVPTNIMNLLFNIAKACNLRAQAAANAHLMAQI-NH2
B4: Cys-variant CRHR2 peptide agonist, SEQ ID NO: 23 (peptide)
peptide: TKFTLSLDVPTNIMNLLFNIACAKNLRAQAAANAHLMAQI-NH2
B5: Cys-variant CRHR2 peptide agonist, SEQ ID NO: 33 (peptide)
peptide: TKFTLSLDVPTNIMNLLFNIAKAKNLRAQAACNAHLMAQI-NH2
B6: Cys-variant CRHR2 peptide agonist, SEQ ID NO: 26 (peptide)
peptide: TKFTLSLDVPTNIMNLLFNIAKAKCLRAQAAANAHLMAQI-NH2
B7: Pegylated Cys-variant CRHR2 peptide agonist (NES linker, PEG about 20 kDa), SEQ ID NO: 75 (peptide)
peptide: TKFTLSLDVPTNIMNLLFNICKAKNLRAQAAANAHLMAQI
modifications: NES-PEG (about 20 kDa) on Cys 21; C-terminal amide
B8: Pegylated Cys-variant CRHR2 peptide agonist (NES linker, PEG about 20 kDa), SEQ ID NO: 84 (peptide)
peptide: B7 peptide with C21A, A30C
modifications: NES-PEG (about 20 kDa) on Cys 30; C-terminal amide
B9: Pegylated Cys-variant CRHR2 peptide agonist (NES linker, PEG about 20 kDa), SEQ ID NO: 76 (peptide)
peptide: B7 peptide with C21A, K22C
modifications: NES-PEG (about 20 kDa) on Cys 22; C-terminal amide
B10: Pegylated Cys-variant CRHR2 peptide agonist (NES linker, PEG about 20 kDa), SEQ ID NO: 93 (peptide)
peptide: B7 peptide with C21A, Q39C
modifications: NES-PEG (about 20 kDa) on Cys 39; C-terminal amide
B11: Pegylated Cys-variant CRHR2 peptide agonist (NES linker, PEG about 20 kDa), SEQ ID NO: 89 (peptide)
peptide: B7 peptide with C21A, H35C
modifications: NES-PEG (about 20 kDa) on Cys 35; C-terminal amide
B12: Pegylated Cys-variant CRHR2 peptide agonist (NES-PEG MW2000), SEQ ID NO: 95 (peptide)
peptide: B7 peptide with C21A, A28C
modifications: NES-PEG MW2000 on Cys 28; C-terminal amide
B13: Pegylated Cys-variant CRHR2 peptide agonist (NES linker, PEG about 20 kDa), SEQ ID NO: 83 (peptide)
peptide: B7 peptide with C21A, Q29C
modifications: NES-PEG (about 20 kDa) on Cys 29; C-terminal amide
B14: Pegylated Cys-variant CRHR2 peptide agonist (NES linker, PEG about 20 kDa), SEQ ID NO: 88 (peptide)
peptide: B7 peptide with C21A, A34C
modifications: NES-PEG (about 20 kDa) on Cys 34; C-terminal amide
B15: Pegylated Cys-variant CRHR2 peptide agonist (NES linker, PEG about 20 kDa), SEQ ID NO: 87 (peptide)
peptide: B7 peptide with C21A, N33C
modifications: NES-PEG (about 20 kDa) on Cys 33; C-terminal amide
B16: Pegylated Cys-variant CRHR2 peptide agonist (NES linker, PEG about 20 kDa), SEQ ID NO: 80 (peptide)
peptide: B7 peptide with C21A, L26C
modifications: NES-PEG (about 20 kDa) on Cys 26; C-terminal amide
B17: Pegylated Cys-variant CRHR2 peptide agonist (NES linker, PEG about 20 kDa), SEQ ID NO: 86 (peptide)
peptide: B7 peptide with C21A, A32C
modifications: NES-PEG (about 20 kDa) on Cys 32; C-terminal amide
B18: Pegylated Cys-variant CRHR2 peptide agonist (NES linker, PEG about 20 kDa), SEQ ID NO: 77 (peptide)
peptide: B7 peptide with C21A, A23C
modifications: NES-PEG (about 20 kDa) on Cys 23; C-terminal amide
B19: Pegylated Cys-variant CRHR2 peptide agonist (NES linker, PEG about 20 kDa), SEQ ID NO: 81 (peptide)
peptide: B7 peptide with C21A, R27C
modifications: NES-PEG (about 20 kDa) on Cys 27; C-terminal amide
B20: Pegylated Cys-variant CRHR2 peptide agonist (NES linker, PEG about 20 kDa), SEQ ID NO: 85 (peptide)
peptide: B7 peptide with C21A, A31C
modifications: NES-PEG (about 20 kDa) on Cys 31; C-terminal amide
B21: Pegylated Cys-variant CRHR2 peptide agonist (NES linker, PEG about 20 kDa), SEQ ID NO: 92 (peptide)
peptide: B7 peptide with C21A, A38C
modifications: NES-PEG (about 20 kDa) on Cys 38; C-terminal amide
B22: Pegylated Cys-variant CRHR2 peptide agonist (NES linker, PEG about 20 kDa), SEQ ID NO: 94 (peptide)
peptide: B7 peptide with C21A, I40C
modifications: NES-PEG (about 20 kDa) on Cys 40; C-terminal amide
B23: Pegylated Cys-variant CRHR2 peptide agonist (NES linker, PEG about 20 kDa), SEQ ID NO: 79 (peptide)
peptide: B7 peptide with C21A, N25C
modifications: NES-PEG (about 20 kDa) on Cys 25; C-terminal amide
B24: Pegylated Cys-variant CRHR2 peptide agonist (NES linker, PEG about 20 kDa), SEQ ID NO: 91 (peptide)
peptide: B7 peptide with C21A, M37C
modifications: NES-PEG (about 20 kDa) on Cys 37; C-terminal amide
B25: Pegylated Cys-variant CRHR2 peptide agonist (NES linker, PEG about 20 kDa), SEQ ID NO: 82 (peptide)
peptide: B7 peptide with C21A, A28C
modifications: NES-PEG (about 20 kDa; MW20000) on Cys 28; C-terminal amide
B26: Pegylated Cys-variant CRHR2 peptide agonist (NES linker, PEG about 20 kDa), SEQ ID NO: 78 (peptide)
peptide: B7 peptide with C21A, K24C
modifications: NES-PEG (about 20 kDa) on Cys 24; C-terminal amide
B27: Cys-variant CRHR2 peptide agonist, SEQ ID NO: 41 (peptide)
peptide: TKFTLSLDVPTNIMNLLFNIAKAKNLRAQAAANAHLMAQC-NH2
B28: Cys-variant CRHR2 peptide agonist, SEQ ID NO: 29 (peptide)
peptide: TKFTLSLDVPTNIMNLLFNIAKAKNLRCQAAANAHLMAQI-NH2
B29: Cys-variant CRHR2 peptide agonist, SEQ ID NO: 37 (peptide)
peptide: TKFTLSLDVPTNIMNLLFNIAKAKNLRAQAAANAHCMAQI-NH2
B30: Cys-variant CRHR2 peptide agonist, SEQ ID NO: 28 (peptide)
peptide: TKFTLSLDVPTNIMNLLFNIAKAKNLCAQAAANAHLMAQI-NH2
B31: Cys-variant CRHR2 peptide agonist, SEQ ID NO: 32 (peptide)
peptide: TKFTLSLDVPTNIMNLLFNIAKAKNLRAQACANAHLMAQI-NH2
B32: Cys-variant CRHR2 peptide agonist, SEQ ID NO: 27 (peptide)
peptide: TKFTLSLDVPTNIMNLLFNIAKAKNCRAQAAANAHLMAQI-NH2
B33: Cys-variant CRHR2 peptide agonist, SEQ ID NO: 34 (peptide)
peptide: TKFTLSLDVPTNIMNLLFNIAKAKNLRAQAAACAHLMAQI-NH2
B34: Cys-variant CRHR2 peptide agonist, SEQ ID NO: 40 (peptide)
peptide: TKFTLSLDVPTNIMNLLFNIAKAKNLRAQAAANAHLMACI-NH2
B35: Cys-variant CRHR2 peptide agonist, SEQ ID NO: 24 (peptide)
peptide: TKFTLSLDVPTNIMNLLFNIAKCKNLRAQAAANAHLMAQI-NH2
B36: Cys-variant CRHR2 peptide agonist, SEQ ID NO: 38 (peptide)
peptide: TKFTLSLDVPTNIMNLLFNIAKAKNLRAQAAANAHLCAQI-NH2
B37: Cys-variant CRHR2 peptide agonist, SEQ ID NO: 30 (peptide)
peptide: TKFTLSLDVPTNIMNLLFNIAKAKNLRACAAANAHLMAQI-NH2
B38: Cys-variant CRHR2 peptide agonist, SEQ ID NO: 39 (peptide)
peptide: TKFTLSLDVPTNIMNLLFNIAKAKNLRAQAAANAHLMCQI-NH2
B39: Cys-variant CRHR2 peptide agonist, SEQ ID NO: 31 (peptide)
peptide: TKFTLSLDVPTNIMNLLFNIAKAKNLRAQCAANAHLMAQI-NH2

Molecular target: T1, human CRH receptor type 2
Experiment: cell-based or functional assay

Log DR against h-SCP, cAMP [log10 ratio]	pA50, cAMP	Binder
0.42	9.1 -log M	B1
0.7	8.93 -log M	B2
0.35	9.17 -log M	B3
1.13	8.55 -log M	B4
0.45	9.07 -log M	B5
0.08	9.44 -log M	B6
1.3	8.24 -log M	B7
~2.84	~6.82 -log M	B8
2.7	6.84 -log M	B9
1.47	8.2 -log M	B10
0.98	8.48 -log M	B11
0.43	9.31 -log M	B12
1.63	7.91 -log M	B13
1.55	8.12 -log M	B14
> 3.68	~6 -log M	B15
1.75	7.6 -log M	B16
0.82	8.79 -log M	B17
1.27	8.27 -log M	B18
1.82	7.83 -log M	B19
0.89	8.51 -log M	B20

Log DR against h-SCP, cAMP [log10 ratio]	pA50, cAMP	Binder
1.55	8.12 -log M	B21
> 2.39	~7 -log M	B22
1.11	8.5 -log M	B23
> 3.43	~6.23 -log M	B24
1.12	8.4 -log M	B25
~1.52	~7.89 -log M	B26
2.07	7.45 -log M	B27
0	9.47 -log M	B28
1.05	8.58 -log M	B29
0.16	9.36 -log M	B30
0.11	9.41 -log M	B31
0.76	8.76 -log M	B32
> 3.19	~6.32 -log M	B33
0.55	9.08 -log M	B34
0.74	8.94 -log M	B35
> 2.95	~6.67 -log M	B36
1.28	8.4 -log M	B37
0.41	9.21 -log M	B38
1.61	8.02 -log M	B39
